These results are taken from patent publication US11549124B2 (priority 2017, dated 2023).

For data set [1], the system named is wheat TaPAPhy phytase (EC 3.1.3.26). Put plainly: Residual phytase activity after treatment with protease at different phytase:protease ratios. As to conditions: phytase: protease ratio of 1:20.
Text: Values are mean of 3 independent technical replicates, and error bars represent means+±sd of replicates.
In data set [2] the test system is phytases in crude extract from F. culmorum 8984. The class given is biochemical.
Data set [3] concerns the target Aspergillus ficuum phytase (Aspergillus niger, UniProt P34752).
A further data set relates to F. graminearum JCM9873. The format is cell-based.
In data set [4] the test system is TRI4, TRI5, TRI6 genes of F. graminearum JCM9873. The format is cell-based.
Data set [5] deals with phytases in crude extract from F. graminearum 7775. The class given is biochemical.

Chain of Aspergillus ficuum phytase (P34752 24-467): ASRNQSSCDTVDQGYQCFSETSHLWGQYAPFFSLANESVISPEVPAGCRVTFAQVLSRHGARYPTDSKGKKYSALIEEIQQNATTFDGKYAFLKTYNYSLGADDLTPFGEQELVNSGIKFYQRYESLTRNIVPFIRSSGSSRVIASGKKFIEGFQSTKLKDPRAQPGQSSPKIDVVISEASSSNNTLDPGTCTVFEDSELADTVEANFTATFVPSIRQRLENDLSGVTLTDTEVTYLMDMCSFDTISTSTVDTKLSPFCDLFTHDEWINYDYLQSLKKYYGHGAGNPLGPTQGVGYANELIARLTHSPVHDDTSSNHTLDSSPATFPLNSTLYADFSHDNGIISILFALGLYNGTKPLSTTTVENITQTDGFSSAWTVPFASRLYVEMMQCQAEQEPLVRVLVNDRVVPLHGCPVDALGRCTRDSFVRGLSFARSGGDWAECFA

For the molecule pepsin, the “phytase activity after exposure to protease” value in data set [1] is “unaffected”.

B1: HvNEP-1 (protein)
chain: MAMAIMNTLQCILFLMALIMTHQIPRATADADTPKVAMASSGAGSSFRLAAHHDHALSRSDDGFLHVQSRLDNLLPSEANVTTLRPPVASPLDMAFSVVVGLGSGKGRHDYNLKLDASGSLTWVQCKPCNPKQPQRGPLFDPKASSTFQQVAGTSQICHPPYPMEPAGQQCAFHLSGMGGMSVHGYVAMENLTMGPEAMKEFVFGCSHSTGHFNSHGTFAGVAAMGKMPTSLVMQVAARGQTRFSYCLFSGGASRHGFLRFGADVPSRSGLRTTKILPALDAHESQYYVSLVGISLDAKRLTGVRPEMFARQRGGEGGCVVDPGTPLTVLVREAYRVVEDAVWSDLRRNKAERVQREGYGLCVRKTAEIKRHLQSLSLHFAEETARLVVKPEQLFVAVESRLHGAALCLAMRPGERTVIGALQQVDTRFVYDLKDAKLSFASEPCSQDTAGVD
modifications: Hordeum vulgare
Turning to B1, the “inhibition of phytases in crude extract” value in data set [2] was “strongly inhibited”. In data set [3] (5 μg HvNEP-1, 2.5 U/ml phytase, 2 mM sodium phytate, 1 h, 37° C., pH 2.0 to 8.0), the “pH of peak activity for inhibiting A. ficuum phytase” value amounted to 5.0. Also, in data set [3] (100 mM acetate buffer pH 5.0, 1 h), the “temperature of peak activity for inhibiting A. ficuum phytase” value worked out at 40 °C. In the data set on F. graminearum JCM9873, the “15-ADON production by F. graminearum” value is “not detectable”, the “growth (biomass accumulation) of fungal culture” value is listed as “strongly inhibited” and the “toxin production of fungal culture” value is on record as “strongly inhibited”. Further, in data set [4], the “expression of TRI4 gene” value is “suppressed”, the “expression of TRI5 gene” value is listed as “suppressed” and the “expression of TRI6 gene” value is given as “suppressed”. For the same molecule, in data set [5], the “inhibition of phytases in crude extract” value is recorded as “strongly inhibited”.
